# Experimental data as given in PMC3013012 (The Journal of Biological Chemistry, 2010).
# Read-outs that look alike come from different tables or passages of the source. Square brackets hold non-standard residues; d marks the D form. Ends that are not written are not given here. Lys(Me3) = C[N+](C)(C)CCCC[C@H](N)C(=O)O
# T1: Cbx4 chromodomain, Cbx4-(8–65) (human, UniProt O00257 8-65)
# T1 sequence: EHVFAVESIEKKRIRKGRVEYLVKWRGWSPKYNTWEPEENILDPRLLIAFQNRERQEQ
# T2: Cbx2 chromodomain, Cbx2-(9–66) (human, UniProt Q14781 9-66)
# T2 sequence: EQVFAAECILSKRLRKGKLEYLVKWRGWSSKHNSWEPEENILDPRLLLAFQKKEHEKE
# T3: Cbx6 chromodomain, Cbx6-(8–65) (human, UniProt O95503 8-65)
# T3 sequence: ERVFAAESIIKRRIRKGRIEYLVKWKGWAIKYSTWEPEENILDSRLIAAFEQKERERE
# T4: Cbx7 chromodomain, Cbx7-(8–62) (human, UniProt O95931 8-62)
# T4 sequence: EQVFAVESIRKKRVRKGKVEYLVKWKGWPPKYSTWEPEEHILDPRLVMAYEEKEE
# T5: Cbx8 chromodomain, Cbx8-(8–61) (human, UniProt Q9HC52 8-61)
# T5 sequence: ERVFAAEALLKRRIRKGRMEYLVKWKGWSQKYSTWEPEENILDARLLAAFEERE
# T6: His6-tagged Cbx7 chromodomain (peptide arrays) (human, UniProt O95931 8-62)
# T6 sequence: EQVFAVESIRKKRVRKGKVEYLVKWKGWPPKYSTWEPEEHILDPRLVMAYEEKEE
# Columns and labels:
# [1] = biological target: Cbx1 chromodomain, Cbx1-(20–73) (human, UniProt P83916 20-73); assay: fluorescence polarisation
# [2] = biological target: T1, Cbx4 chromodomain, Cbx4-(8–65); assay: fluorescence polarisation
# [3] = biological target: Cbx5 chromodomain, Cbx5-(18–75) (human, UniProt P45973 18-75); assay: fluorescence polarisation
# [4] = biological target: T2, Cbx2 chromodomain, Cbx2-(9–66); assay: fluorescence polarisation
# [5] = biological target: T3, Cbx6 chromodomain, Cbx6-(8–65); assay: fluorescence polarisation
# [6] = biological target: T4, Cbx7 chromodomain, Cbx7-(8–62); assay: fluorescence polarisation
# [7] = biological target: T5, Cbx8 chromodomain, Cbx8-(8–61); assay: fluorescence polarisation
# [8] = biological target: His6-tagged Cbx3 chromodomain (peptide arrays) (human, UniProt Q13185 29-81); assay: peptide or protein array
# [9] = biological target: T6, His6-tagged Cbx7 chromodomain (peptide …); assay: peptide or protein array
# [10] = biological target: T4, Cbx7 chromodomain, Cbx7-(8–62)
# [11] = biological target: T5, Cbx8 chromodomain, Cbx8-(8–61)
# Sequence of His6-tagged Cbx3 chromodomain (peptide arrays) (Q13185 29-81): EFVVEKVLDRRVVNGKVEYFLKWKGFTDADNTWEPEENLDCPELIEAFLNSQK
# Sequence of Cbx1 chromodomain, Cbx1-(20–73) (P83916 20-73): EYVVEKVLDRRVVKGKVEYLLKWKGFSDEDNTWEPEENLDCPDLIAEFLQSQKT
# Sequence of Cbx5 chromodomain, Cbx5-(18–75) (P45973 18-75): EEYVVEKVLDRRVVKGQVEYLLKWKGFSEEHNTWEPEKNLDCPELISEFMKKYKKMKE
binder,measurement,setting,value
"ARTKQTARKSTGGKA (trimethyllysine at 9; fluorescein on the N-terminus) [H3K9Me3 peptide (ARTKQTARK(me3)STGGKA), fluorescein-labeled]",Kd,[1],5 µM
same,Kd,[2],70 µM
same,Kd,[3],30 µM
"fluorescein-QLATKTAR[Lys(Me3)]SAPATG [H3K27Me3A24T peptide (QLATKTARK(me3)SAPATG), fluorescein-labeled]",Kd,[4],330 µM
same,Kd,[2],250 µM
same,Kd,[5],> 500 µM
same,Kd,[6],210 µM
same,Kd,[7],> 500 µM
"QLATKAARKSAPATG (trimethyllysine at 27; fluorescein on the N-terminus) [H3K27Me3 peptide (QLATKAARK(me3)SAPATG), fluorescein-labeled]",Kd,[4],185 µM
same,Kd,[2],205 µM
same,Kd,[5],> 500 µM
same,Kd,[6],110 µM
same,Kd,[7],> 500 µM
"fluorescein-ARTKQAAR[Lys(Me3)]STGGKA [H3K9Me3T6A peptide (ARTKQAARK(me3)STGGKA), fluorescein-labeled]",Kd,[1],45 µM
same,Kd,[2],80 µM
same,Kd,[6],140 µM
"TKQTAR[Lys(Me3)]STGGKA (also: held on a cellulose membrane through a polyethylglycol linker) [histone H3 residues 3–15 with trimethylated Lys-9, membrane-immobilized array peptide]",binding result,[8],binds
same,binding result,[9],binds
"ATKAAR[Lys(Me3)]SAPATG (also: held on a cellulose membrane through a polyethylglycol linker) [histone H3 residues 21–33 with trimethylated Lys-27, membrane-immobilized array peptide]",binding result,[9],binds
"TKQVAR[Lys(Me3)]STGGKA (also: held on a cellulose membrane through a polyethylglycol linker) [histone H3 residues 3–15, K9me3, T6V array peptide]",binding result,[8],binds
"TKNTAR[Lys(Me3)]STGGKA (also: held on a cellulose membrane through a polyethylglycol linker) [histone H3 residues 3–15, K9me3, Gln-5 to Asn array peptide]",binding result,[8],binds
"TKCTAR[Lys(Me3)]STGGKA (also: held on a cellulose membrane through a polyethylglycol linker) [histone H3 residues 3–15, K9me3, Gln-5 to Cys array peptide]",binding result,[8],binds
"TKHTAR[Lys(Me3)]STGGKA (also: held on a cellulose membrane through a polyethylglycol linker) [histone H3 residues 3–15, K9me3, Gln-5 to His array peptide]",binding result,[8],binds
RQVAV[Lys(Me3)]STR [SETDB1 peptide RQVAVKme3STR],Kd,[10],43 µM
same,Kd,[11],98 µM
RGFAL[Lys(Me3)]STHG [SETDB1 peptide 1165-RGFALKme3STHG],Kd,[10],5 µM
HGIAI[Lys(Me3)]STN [SETDB1 peptide HGIAIKme3STN],Kd,[10],5 µM
same,Kd,[11],37 µM
